In article PMC5453099, “Vascular Endothelial Growth Factor (VEGF) Detection Using an Aptamer and PNA-Based Bound/Free Separation System”:

Molecular target: VEGF (vascular endothelial growth factor) (UniProt P15692-4 27-191)
Test: bound/free separation: fluorescence of supernatant after capture of free aptamer on PNA beads; 10 nM aptamer, CaPNA4 beads; signal rises with 5-50 nM VEGF; detection limit 25 nM (not a Kd); TBS: 10 mM Tris-HCl pH 7.0, 100 mM NaCl; room temperature; protein and aptamer 10 min, then CaPNA beads 5 min (beads blocked with 4% skimmed milk and 4 mM biotin)
Details: protein: commercial; chain copies: 2; label: 5'-fluorescein; predicted three-way junction with stem-loops

VEGF (vascular endothelial growth factor), sequence (P15692 other isoform, or with tags, fused parts or gaps): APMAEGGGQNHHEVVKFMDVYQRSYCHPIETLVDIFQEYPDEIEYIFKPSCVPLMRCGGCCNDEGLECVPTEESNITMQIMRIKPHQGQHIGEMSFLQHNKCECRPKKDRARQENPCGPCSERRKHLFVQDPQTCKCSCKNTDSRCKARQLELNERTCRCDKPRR

B1: VEGF aptamer (58-mer) (structured_DNA)
DNA: CTGGCCAGGTACCAAAAGATGATCTTGGGCCCGTCCGAATGGTGGGTGTTCTGGCCAG
**Q.** Does B1 bind?
**A.** Result: binds
